Test results as given in article PMC9154124.

Biological target: chimeric H5 Env: Env_(HXB2) with the V3 loop of Env_(SF162) (HIV-1 strain HXB2 | HIV-1 strain SF162) (UniProt P04578)

## Human soluble CD4-183 (sCD4-183) two-domain protein (domain or fragment)
  inhibition by sCD4 of the infectivity of HIV-1 pseudotyped with Env (titration, Fig 3A); loss of potency against H4 Env: > 50 fold
  sCD4-induced gp120 shedding from Env-expressing HEK293T cells (Fig 3B); shift of the sCD4 dependence against H4 Env: > 10 fold
